The target of data set [1] is T1, human GLP-2R (Homo sapiens, UniProt O95838).
T1 construct: host or cells: CHO-K1
T1 sequence (O95838 1-553): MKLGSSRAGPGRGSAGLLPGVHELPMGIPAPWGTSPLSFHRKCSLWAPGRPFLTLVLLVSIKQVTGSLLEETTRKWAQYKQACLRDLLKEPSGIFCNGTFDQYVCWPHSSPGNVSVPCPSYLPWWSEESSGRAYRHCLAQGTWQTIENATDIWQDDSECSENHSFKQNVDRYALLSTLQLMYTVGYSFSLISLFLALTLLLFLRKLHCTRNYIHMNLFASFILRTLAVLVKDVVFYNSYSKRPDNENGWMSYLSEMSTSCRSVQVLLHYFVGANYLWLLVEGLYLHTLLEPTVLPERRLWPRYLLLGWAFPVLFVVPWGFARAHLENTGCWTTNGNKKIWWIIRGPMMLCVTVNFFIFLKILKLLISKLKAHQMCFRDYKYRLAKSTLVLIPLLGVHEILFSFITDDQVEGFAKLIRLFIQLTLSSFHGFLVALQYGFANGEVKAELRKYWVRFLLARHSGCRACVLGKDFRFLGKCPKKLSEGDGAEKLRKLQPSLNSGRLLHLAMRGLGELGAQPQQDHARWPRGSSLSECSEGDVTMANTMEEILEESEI
As to the kind of experiment: cAMP Hunter eXpress GLP2R CHO-K1 GPCR assay. Type of data set: cell-based. On the procedure: The cAMP Hunter™ assay is based on enzyme fragment complementation (EFC). In EFC assay, the enzyme donor is fused to cAMP. Increased intracellular cAMP due to GLP2R activation competes with ED-cAMP for antibody. Unbound ED-cAMP complements the enzyme acceptor to form active beta galactosidase, which subsequently produces a luminescent signal.
The CHO-K1 cell line used is overexpressing human GLP-2R (Genbank accession number NM004246.1). […] Their activities were assayed via measurement of the concentration of cAMP in the media.

Data set [2] in a line: Cynomolgus monkey pharmacokinetic study. The format is in vivo, cynomolgus monkeys. The conditions noted are these: 0.75 mg/kg. On the procedure: Pharmacokinetics studies of teduglutide, GLP-2 Peptibody B and GLP-2 Peptibody K were formed in cynomolgus monkeys with citrulline assayed as a biomarker of GLP-2 concentration. In the study, 12.5 nmol/kg teduglutide was administered subcutaneously to a group of 6 male cynomolgus monkeys at day 1. Then for one set of 2 monkeys, 25 nmol/kg GLP-2 Peptibody B was administered intravenously at day 7, day 21, day 28, day 35, and day 42. For another set of 3 monkeys, 25 nmol/kg GLP-2 Peptibody B was administered subcutaneously at day 7, day 21, day 28, day 35, and day 42. For another set of monkeys, 5 nmol/kg GLP-2 Peptibody K was administered intravenously (2 monkeys) and subcutaneously (3 monkeys) at day 7, day 21, day 28, day 35, and day 42. For another set of monkeys, 25 nmol/kg GLP-2 Peptibody K was administered subcutaneously (3 monkeys) and intravenously (2 monkeys) at day 7, day 21, day 28, day 35, and day 42.

The nature of data set [3]: Rat pharmacokinetic comparability with/without C-terminal lysine. Type of data set: in vivo, Sprague-Dawley rats. The settings on record: in vivo, 1 mg/kg. On the procedure: 1 mg/kg of total GLP-2 peptibody K protein was administered subcutaneously to one group of six male Sprague-Dawley rats. 1 mg/kg of total GLP-2 peptibody K274 protein was administered intravenously to another group of six male Sprague-Dawley rats. 1 mg/kg of total GLP-2 peptibody B protein was administered subcutaneously to a third group of five male Sprague-Dawley rats. 1 mg/kg of total GLP-2 peptibody B264 protein was administered subcutaneously to a fourth group of five male Sprague-Dawley rats.
For all of the above groups, plasma samples were taken pre-dose, and at the following time points post-dose: 5 minutes (day 1), 10 minutes (day 1), 20 minutes (day 1), 30 minutes (day 1), 1 hour (day 1), 2 hours (day 1), 6 hours (day 1), 24 hours (day 2), 48 hours (day 3), 72 hours (day 4), 120 hours (day 6), 168 hours (day 8), 240 hours (day 11), and 336 hours (day 15).
Tables showing the pharmacokinetic data comparing intravenously administered GLP-2 peptibody K and GLP-2 peptibody K274 are in FIG. 10B. Tables showing the pharmacokinetic data comparing subcutaneously administered GLP-2 peptibody K and GL-2 peptibody K274 are in FIG. 10C.

Data set [4] in a line: SEC-MALS (Sepax Zenix C-150) peak distribution. Type of data set: physicochemical. On the procedure:
A SEC-MALS assay was performed to determine the primary state (main peak) and its molecular weight. […] The GLP-2 peptibody O (albumin fusion) eluted at a molecular weight indicative of a monomer.
(§1) Stability analysis was then performed using SEC-MALS and NanoDSF. For SEC-MALS, a Sepax Zenix C-150 column was used. The mobile phase buffer was 1× PBS with a final concentration of 400 mM NaCl. The flow rate was 0.8 mL per minute. 20 micrograms of total protein was injected. For NanoDSF, 10 microliters of sample was used, without normalization of the samples.
as §1
For orientation: Size exclusion chromatography separates by hydrodynamic size, large species first.

As a reminder, the CL/F is the apparent clearance, not corrected for the fraction that reaches the circulation. Take “GLP-2 peptibody K: GLP-2[A2G]-GGGGSGGGGSGGGGS linker-IgG1 Fc (LALA) with C-terminal lysine; SEQ ID NO: 10”: the “reduction of activity vs GLP-2[A2G]” value in data set [1] is recorded as “about five-fold”. In data set [2] (MDPK, intravenous), the CL worked out at 0.804 mL/h/kg, the Q was determined as 1.12 mL/h/kg, the Vc was found to be 0.0365 L/kg and the Vt is 0.0339 L/kg. Moreover, in data set [2] (MDPK, subcutaneous), the CL/F came out at 1.35 mL/h/kg, the Vc came out at 0.111 L/kg and the “association constant (ka)” value was found to be 1.70 day⁻¹. In data set [2] (SDPK, intravenous), this substance yielded a CL of 0.717 mL/h/kg, a Q of 1.21 mL/h/kg, a Vc of 0.0323 L/kg and a Vt of 0.0329 L/kg. Moreover, in data set [2] (SDPK, subcutaneous), the CL/F was determined as 1.37 mL/h/kg, the Vc turned out to be 0.107 L/kg and the “association constant (ka)” value was determined as 1.56 day⁻¹. For the same substance, the “pharmacokinetic comparability of K and K274” value in data set [3] is “identical from a pharmacokinetic point of view”. In addition, the “SEC-MALS Zenix C-150 main peak” value in data set [4] is reported as 80.2% main peak, 149,900 g/mol.

The record behind these values is patent publication US20230031280A1, “GLP-2 FUSION POLYPEPTIDES AND USES FOR TREATING AND PREVENTING GASTROINTESTINAL CONDITIONS” (SHIRE-NPS PHARMACEUTICALS, INC., priority 2017, published 2023).
